In patent publication US20240150465A1 (Chugai, published 2024):

T1: recombinant human DLL3 (human, UniProt Q9NYJ7 27-492)
T1 sequence: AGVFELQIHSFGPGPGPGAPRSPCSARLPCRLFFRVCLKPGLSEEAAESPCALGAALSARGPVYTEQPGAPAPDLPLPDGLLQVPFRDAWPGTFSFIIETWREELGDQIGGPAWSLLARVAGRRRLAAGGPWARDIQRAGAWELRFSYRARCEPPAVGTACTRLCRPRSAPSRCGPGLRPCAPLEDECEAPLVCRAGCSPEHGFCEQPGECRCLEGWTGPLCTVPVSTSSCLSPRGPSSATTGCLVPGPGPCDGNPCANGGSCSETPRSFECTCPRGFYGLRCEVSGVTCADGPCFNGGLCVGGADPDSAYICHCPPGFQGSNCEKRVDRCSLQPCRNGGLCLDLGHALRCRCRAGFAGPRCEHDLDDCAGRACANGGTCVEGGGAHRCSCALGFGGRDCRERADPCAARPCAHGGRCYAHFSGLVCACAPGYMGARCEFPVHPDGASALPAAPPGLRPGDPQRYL

T2: Cynomolgus DLL3 ECD with Myc-tag on N-terminus and His-tag on C-terminus (cynomolgus)
T2 construct: also called Myc-cynoDLL3-His; Cyno DLL3
T2 chain: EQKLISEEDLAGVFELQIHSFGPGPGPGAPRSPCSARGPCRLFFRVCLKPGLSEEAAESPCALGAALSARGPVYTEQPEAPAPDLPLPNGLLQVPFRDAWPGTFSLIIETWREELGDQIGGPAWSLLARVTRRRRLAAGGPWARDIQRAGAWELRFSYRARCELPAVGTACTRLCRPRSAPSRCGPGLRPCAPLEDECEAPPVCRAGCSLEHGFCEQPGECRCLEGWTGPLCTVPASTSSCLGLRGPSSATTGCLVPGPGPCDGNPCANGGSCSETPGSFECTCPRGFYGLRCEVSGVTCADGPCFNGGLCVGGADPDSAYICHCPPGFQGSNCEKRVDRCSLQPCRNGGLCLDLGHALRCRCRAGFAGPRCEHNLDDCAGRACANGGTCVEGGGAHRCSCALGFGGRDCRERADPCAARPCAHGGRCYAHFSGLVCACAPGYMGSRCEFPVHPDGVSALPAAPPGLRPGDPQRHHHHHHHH

B1: DLA0316/TR01 (bispecific antibody, V domains shown)
VH 1: QEQLVESGGGLVQPGGSLKLSCKVSGFDFSNYGVSWVRQAPGKGLEWIGYIDPAFGRTYYASWVNGRFTISSHNAQNTLYLQLNSLTAADTATYFCVRVALVVAGVAYYGMDVWGPGTLVTVSS
VL 1: ADVVMTQTPASVEAAVGGTVTINCQASQNIYSYLSWYQQKPGQPPKLLIYRTSTLASGVPSRFKGSGSGTQFTLTISDLECADAATYYCQSYYYSSGSSYGAFAFGGGTEVVVK
VH 2: QVQLVESGGGVVQPGGSLRLSCAASGFTFSNAWMHWVRQAPGKGLEWVAQIKDKSQNYATYVAESVKGRFTISRADSKNSIYLQMNSLKTEDTAVYYCRYVHYAAGYGVDIWGQGTTVTVSS
VL 2: DIVMTQSPLSLPVTPGEPASISCRSSQPLVHSNRNTYLHWYQQKPGQAPRLLIYKVSNRFSGVPDRFSGSGSGTDFTLKISRVEAEDVGVYYCGQGTQVPYTFGQGTKLEIK
notes: IgG-type anti-DLL3/CD3 bispecific made by Fab arm exchange
B2: DLA0841/TR01 (bispecific antibody, V domains shown)
VH 1: QEQLVESGGGLVQPEGSLTLTCTASGFSFSSSYDMCWVRQAPGKGPEWIACIYTGDGSTDYASWAKGRFTVSKASSTTVTLQMTSLAVADTATYFCARNSGYGYFGLWGPGTLVTVSS
VL 1: QVLTQTPSPVSAAVGGTVTISCQSTESVYGSDWLSWYQQKPGQPPKVLIYQASNLEIGVPSRFKGSGSGTQFTLTISGAQCDDAATYYCQGYYSGYIYAFGGGTEVVVK
VH 2: QVQLVESGGGVVQPGGSLRLSCAASGFTFSNAWMHWVRQAPGKGLEWVAQIKDKSQNYATYVAESVKGRFTISRADSKNSIYLQMNSLKTEDTAVYYCRYVHYAAGYGVDIWGQGTTVTVSS
VL 2: DIVMTQSPLSLPVTPGEPASISCRSSQPLVHSNRNTYLHWYQQKPGQAPRLLIYKVSNRFSGVPDRFSGSGSGTDFTLKISRVEAEDVGVYYCGQGTQVPYTFGQGTKLEIK
notes: as for B1
B3: D30316AE03/AN121 (bispecific antibody, V domains shown)
VH 1: EVQLVESGGGLVQPGGSLRLSCAASGFTFSNYGVSWVRQAPGQGLEWMGYIDIAFGRTYYASWVTGRITINPDTSKNQFSLQLNSVTPEDTAVYYCARVALVVAGVAYYGMDVWGQGTLVTVSS
VL 1: DIVMTQSPDSLAVSLGERATINCQASQNIYSYLSWYQQKPGKAPKLLIYRTSTLASGVPDRFSGSGSGTDFTLKISRVEAEDVGVYYCQSYYYSSGSSYGAFAFGQGTKVEIK
VH 2: QVQLVESGGGLVQPGRSLRLSCAASGFTFSNAWMHWVRQAPGKGLEWVAQIKDRANSYNTYYAESVKGRFTISRDDSKNSIYLQMNSLKTEDTAVYYCRYVHYTTYAGSSFSYGVDAWGQGTTVTVSS
VL 2: DIVMTQSPLSLPVTPGEPASISCRSSQPLVHSNRNTYLHWYQQKPGQAPRLLIYKVSNRFSGVPDRFSGSGSGTDFTLKISRVEAEDVGVYYCGQGTQVPYTFGQGTKLEIK
notes: as for B1
B4: D30841AE08/TR01 (bispecific antibody, V domains shown)
VH 1: QVTLRESGPALVKPTQTLTLTCTFSGFSLSSSYDMGWVRQAPGQGLEWMGTIYTGDYSTDYASWAKGRVTISVDTSKNQFSLKLSSVTAADTAVYYCARHTGYGYFGLWGQGTLVTVSS
VL 1: DIQLTQSPSFLSASVGDRVTITCQSTESVYGSDWLSWYQQKPGQPPKLLIYQASNLEIGVPSRFSGSGSGTDFTLTINSLEAEDAATYYCQGYYSGYIYAFGGGTKVEIK
VH 2: QVQLVESGGGVVQPGGSLRLSCAASGFTFSNAWMHWVRQAPGKGLEWVAQIKDKSQNYATYVAESVKGRFTISRADSKNSIYLQMNSLKTEDTAVYYCRYVHYAAGYGVDIWGQGTTVTVSS
VL 2: DIVMTQSPLSLPVTPGEPASISCRSSQPLVHSNRNTYLHWYQQKPGQAPRLLIYKVSNRFSGVPDRFSGSGSGTDFTLKISRVEAEDVGVYYCGQGTQVPYTFGQGTKLEIK
notes: as for B1
B5: D30841AE11/TR01 (bispecific antibody, V domains shown)
VH 1: QVTLRESGPALVKPTQTLTLTCTFSGFSLSSSYDMGWVRQAPGQGLEWMGTIYTGDYSTDYASWAKGRVTISVDTSKNQFSLKLSSVTAADTAVYYCARHTGYGYFGLWGQGTLVTVSS
VL 1: DIQLTQSPSFLSASVGDRVTITCQSTESVYGSDWLSWYQQKPGQPPKLLIYQASNLEIGVPSRFSGSGSGTDFTLTINSLEAEDAATYYCQGYYSGYSYAFGGGTKVEIK
VH 2: QVQLVESGGGVVQPGGSLRLSCAASGFTFSNAWMHWVRQAPGKGLEWVAQIKDKSQNYATYVAESVKGRFTISRADSKNSIYLQMNSLKTEDTAVYYCRYVHYAAGYGVDIWGQGTTVTVSS
VL 2: DIVMTQSPLSLPVTPGEPASISCRSSQPLVHSNRNTYLHWYQQKPGQAPRLLIYKVSNRFSGVPDRFSGSGSGTDFTLKISRVEAEDVGVYYCGQGTQVPYTFGQGTKLEIK
notes: as for B1
B6: D30316AE03/AN395 (bispecific antibody, V domains shown)
VH 1: EVQLVESGGGLVQPGGSLRLSCAASGFTFSNYGVSWVRQAPGQGLEWMGYIDIAFGRTYYASWVTGRITINPDTSKNQFSLQLNSVTPEDTAVYYCARVALVVAGVAYYGMDVWGQGTLVTVSS
VL 1: DIVMTQSPDSLAVSLGERATINCQASQNIYSYLSWYQQKPGKAPKLLIYRTSTLASGVPDRFSGSGSGTDFTLKISRVEAEDVGVYYCQSYYYSSGSSYGAFAFGQGTKVEIK
VH 2: QVQLVESGGGLVQPGRSLRLSCAASGFTFSNAWMHWVRQAPGKGLEWVAQIKDKANGYNAYYAPSVKGRFTISRDDSKNSIYLQMNSLKTEDTAVYYCRYVHYTTFGFGLSYGGVDAWGQGTTVTVSS
VL 2: DIVMTQSPLSLPVTPGEPASISCRSSQPLVHSNRNTYLHWYQQKPGQAPRLLIYKVSNRFSGVPDRFSGSGSGTDFTLKISRVEAEDVGVYYCGQGTQVPYTFGQGTKLEIK
notes: as for B1
B7: D30316AE03/AN119 (bispecific antibody, V domains shown)
VH 1: EVQLVESGGGLVQPGGSLRLSCAASGFTFSNYGVSWVRQAPGQGLEWMGYIDIAFGRTYYASWVTGRITINPDTSKNQFSLQLNSVTPEDTAVYYCARVALVVAGVAYYGMDVWGQGTLVTVSS
VL 1: DIVMTQSPDSLAVSLGERATINCQASQNIYSYLSWYQQKPGKAPKLLIYRTSTLASGVPDRFSGSGSGTDFTLKISRVEAEDVGVYYCQSYYYSSGSSYGAFAFGQGTKVEIK
VH 2: QVQLVESGGGLVQPGRSLRLSCAASGFTFSNAWMHWVRQAPGKGLEWVAQIKDKQNSYAAYYAESVKGRFTISRDDSKNSIYLQMNSLKTEDTAVYYCRYVHYTTYSGGFFSYGVDAWGQGTTVTVSS
VL 2: DIVMTQSPLSLPVTPGEPASISCRSSQPLVHSNRNTYLHWYQQKPGQAPRLLIYKVSNRFSGVPDRFSGSGSGTDFTLKISRVEAEDVGVYYCGQGTQVPYTFGQGTKLEIK
notes: as for B1
B8: D30316AE03/AN104 (bispecific antibody, V domains shown)
VH 1: EVQLVESGGGLVQPGGSLRLSCAASGFTFSNYGVSWVRQAPGQGLEWMGYIDIAFGRTYYASWVTGRITINPDTSKNQFSLQLNSVTPEDTAVYYCARVALVVAGVAYYGMDVWGQGTLVTVSS
VL 1: DIVMTQSPDSLAVSLGERATINCQASQNIYSYLSWYQQKPGKAPKLLIYRTSTLASGVPDRFSGSGSGTDFTLKISRVEAEDVGVYYCQSYYYSSGSSYGAFAFGQGTKVEIK
VH 2: QVQLVESGGGLVQPGRSLRLSCAASGFTFSNAWMHWVRQAPGKGLEWVAQIKDRQNGYNTYYAESVKGRFTISRDDSKNSIYLQMNSLKTEDTAVYYCRYVHYTTTYGSYYQFGVDAWGQGTTVTVSS
VL 2: DIVMTQSPLSLPVTPGEPASISCRSSQPLVHSNRNTYLHWYQQKPGQAPRLLIYKVSNRFSGVPDRFSGSGSGTDFTLKISRVEAEDVGVYYCGQGTQVPYTFGQGTKLEIK
notes: as for B1

How the values were obtained:
recombinant human DLL3 = target: T1, recombinant human DLL3; test: SPR Biacore 8K, 37 C, pH 7.4; bispecific captured on anti-human Fc, DLL3 as analyte, 1:1 model
Experimental: (§1) Binding affinity of anti-DLL3 arm in the anti-DLL3/CD3 antibodies to human or cynomolgus DLL3 at pH 7.4 were assessed at 37 degrees C. using Biacore 8K instrument (GE Healthcare). Anti-human Fc (GE Healthcare) was immobilized onto all flow cells of a CM4 sensor chip using amine coupling kit (GE Healthcare). The bispecific antibodies were captured onto the anti-Fc sensor surfaces, and then recombinant human or cynomolgus DLL3 was injected over the flow cell. All antibodies and analytes were prepared in ACES pH 7.4 containing 20 mM ACES, 150 mM NaCl, 0.05% Tween 20, 0.005% NaN₃. Sensor surface was regenerated each cycle with 3M MgCl₂.

[1] = target: T2, Cynomolgus DLL3 ECD with Myc-tag on …; test: as above
Experimental: as §1

[2] = target: recombinant human CD3eg protein (CD3 epsilon-gamma, heterodimer of CD3 epsilon and CD3 gamma) (human, UniProt P07766 23-126; P09693 23-116); test: SPR Biacore 8K, 37 C, pH 7.4; bispecific captured on anti-human Fc, human CD3eg as analyte, 1:1 model
Chain of recombinant human CD3eg protein (CD3 epsilon-gamma, heterodimer of CD3 epsilon and CD3 gamma) (P07766 23-126 limits assumed, chain 1 of 2): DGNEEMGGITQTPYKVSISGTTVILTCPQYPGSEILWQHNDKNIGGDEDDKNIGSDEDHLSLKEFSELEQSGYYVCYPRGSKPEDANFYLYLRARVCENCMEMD
Chain of recombinant human CD3eg protein (CD3 epsilon-gamma, heterodimer of CD3 epsilon and CD3 gamma) (P09693 23-116 limits assumed, chain 2 of 2): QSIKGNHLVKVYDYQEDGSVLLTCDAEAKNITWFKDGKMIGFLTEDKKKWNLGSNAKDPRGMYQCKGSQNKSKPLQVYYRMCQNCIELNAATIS
Experimental: as §1, with “of the anti-CD3” for “of anti-DLL3”, “arm of” for “arm in”, “anti-DLL3/CD3 bispecific” for “anti-DLL3/CD3”, “to CD3” for “to human or cynomolgus DLL3”, “7.4 was” for “7.4 were”, “human CD3eg proteins (CD3 epsilon-gamma, heterodimer of CD3 epsilon and CD3 gamma)” for “human or cynomolgus DLL3”

Binder	Kd (recombinant human DLL3) [nM]	koff (recombinant human DLL3) [s⁻¹]	kon (recombinant human DLL3) [M⁻¹ s⁻¹]	Kd [1] [nM]	koff [1] [s⁻¹]	kon [1] [M⁻¹ s⁻¹]	Kd [2] [nM]	koff [2] [s⁻¹]	kon [2] [M⁻¹ s⁻¹]
B1	0.0353	8.72e-05	2.47e+06	0.0199	4.96e-05	2.49e+06	–	–	–
B2	0.0639	0.000247	3.87e+06	0.0621	0.000238	3.83e+06	–	–	–
B3	–	–	–	–	–	–	7.55	0.000744	98600
B4	0.0872	0.000215	2.47e+06	0.0737	0.000191	2.59e+06	–	–	–
B5	0.172	0.000325	1.88e+06	0.142	0.000265	1.86e+06	–	–	–
B6	–	–	–	–	–	–	30.7	0.00743	242000
B7	–	–	–	–	–	–	11	0.0016	145000
B8	–	–	–	–	–	–	37.3	0.00266	71400
